Results: patent US10369187B2, “Peptide regulators of JNK family kinases” (Vanderbilt University, priority 2017, dated 2019)

Legend:
[1] = target: T1, JNK3 (Homo sapiens, UniProt P53779); test: MBP pull-down of purified JNK3; assay type: binding; conditions: MBP-fusions, compared with T1A
Experimental: FIG. 5. […] Residues that differ between T1A and B1A are shown in magenta. b, c, d) Pull-down of purified JNK3 (b), MKK4 (c), and MKK7 (d) by MBP (negative control), MBP-arrestin-3 (positive control), MBP-T1A, and MBP-B1A, was performed, as described in Methods. Lower panels, Coomassie gels of loaded MBP-fusions; middle panels, Western blots of retained JNK3 (b), MKK4 (c), and MKK7 (d); upper panels, quantification of Western blots from 3-4 independent experiments. […] T1A sequence shown is SEQ ID NO:1. B1A sequence shown is SEQ ID NO:6.
To test the specificity of T1A action, its ability to bind purified MKK4, MKK7, and JNK3 was compared with that of B1A, a homologous N-terminal peptide from closely related arrestin-2, which differs from T1A only in four positions (FIG. 5). […] To test whether this difference in binding translates into differential activity in cells, the ability of YFP-T1A and YFP-B1A to facilitate JNK3 activation were compared in cells over-expressing ASK1, using YFP-arrestin-3 and YFP as positive and negative controls, respectively.
To make MBP-fusions containing arrestin-2/3 elements, the cDNAs encoding arrestin fragments were subcloned into pMal-p2T (generous gift from Dr. Keiji Tanaka, Tokyo Institute of Medical Science) between Eco RI and Xho I sites in frame with MBP, as described^23. […] Eluates were analyzed by SDS-PAGE and Western blotting.

[2] = target: T1, JNK3; conditions: earlier work, reference 23; cited from earlier work
[3] = target: T2, ASK1 (Homo sapiens, UniProt Q99683); test: Co-immunoprecipitation of HA-ASK1 with YFP construct from COS7 cells; assay type: binding; conditions: HA-ASK1 and YFP-T1A co-expressed in COS7 cells, anti-GFP antibody
T2 construct: expressed in transfected cells; host or cells: COS7
T2 sequence (Q99683 1-1374): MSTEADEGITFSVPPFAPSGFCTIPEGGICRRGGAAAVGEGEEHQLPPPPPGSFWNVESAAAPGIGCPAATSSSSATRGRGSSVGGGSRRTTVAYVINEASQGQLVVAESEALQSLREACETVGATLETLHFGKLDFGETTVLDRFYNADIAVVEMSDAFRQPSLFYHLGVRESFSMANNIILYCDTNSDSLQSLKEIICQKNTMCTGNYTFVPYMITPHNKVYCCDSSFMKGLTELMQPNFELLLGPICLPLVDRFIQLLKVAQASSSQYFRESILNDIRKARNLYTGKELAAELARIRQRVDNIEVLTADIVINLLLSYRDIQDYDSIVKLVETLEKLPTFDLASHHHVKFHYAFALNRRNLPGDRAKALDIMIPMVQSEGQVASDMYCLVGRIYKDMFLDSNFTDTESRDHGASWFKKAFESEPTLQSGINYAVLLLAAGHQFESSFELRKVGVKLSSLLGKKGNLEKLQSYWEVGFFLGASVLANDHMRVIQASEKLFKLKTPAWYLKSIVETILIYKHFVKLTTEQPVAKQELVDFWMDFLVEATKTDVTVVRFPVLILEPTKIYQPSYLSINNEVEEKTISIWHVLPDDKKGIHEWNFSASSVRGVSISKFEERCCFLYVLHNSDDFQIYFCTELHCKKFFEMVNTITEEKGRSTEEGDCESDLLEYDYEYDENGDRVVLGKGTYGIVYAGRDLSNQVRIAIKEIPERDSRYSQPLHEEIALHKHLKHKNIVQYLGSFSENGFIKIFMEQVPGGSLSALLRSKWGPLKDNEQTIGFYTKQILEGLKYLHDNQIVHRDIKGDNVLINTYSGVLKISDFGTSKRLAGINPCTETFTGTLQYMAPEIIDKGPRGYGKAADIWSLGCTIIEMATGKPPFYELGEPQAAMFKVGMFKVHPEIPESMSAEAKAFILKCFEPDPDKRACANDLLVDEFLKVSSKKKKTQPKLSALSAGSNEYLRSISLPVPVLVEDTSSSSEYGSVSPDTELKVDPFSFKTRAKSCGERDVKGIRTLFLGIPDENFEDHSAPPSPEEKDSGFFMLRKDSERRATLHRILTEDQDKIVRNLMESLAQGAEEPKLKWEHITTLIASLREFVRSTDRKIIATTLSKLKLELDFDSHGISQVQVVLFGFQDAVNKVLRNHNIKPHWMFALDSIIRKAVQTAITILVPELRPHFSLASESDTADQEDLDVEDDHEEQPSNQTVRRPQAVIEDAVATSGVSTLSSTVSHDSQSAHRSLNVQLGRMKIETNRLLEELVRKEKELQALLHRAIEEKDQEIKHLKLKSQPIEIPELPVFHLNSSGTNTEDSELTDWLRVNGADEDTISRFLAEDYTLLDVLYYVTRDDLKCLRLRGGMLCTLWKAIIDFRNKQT
Experimental: T1A was expressed in E. coli as an MBP-fusion and purified it on an amylose column^23. The ability of purified GST-MKK4 or GST-MKK7 (FIG. 1A) to bind MBP-T1A immobilized on an amylose column was tested in an in vitro pull-down assay, where MBP and MBP-arrestin-3 served as negative and positive controls, respectively (FIG. 1B). MBP-T1A, but not control MBP, effectively retained both kinases (FIG. 1B). […] Next, it was tested whether T1A binds the uppermost kinase in the cascade, ASK1. Because ASK1 is not available in purified form, HA-tagged ASK1 and YFP-tagged T1A (using YFP as a control) were co-expressed in COS7 cells, lysed the cells, and immunoprecipitated YFP constructs with anti-GFP antibody (FIG. 1C).

T1 sequence (P53779 whole entry, species assumed, the tested form may be a part): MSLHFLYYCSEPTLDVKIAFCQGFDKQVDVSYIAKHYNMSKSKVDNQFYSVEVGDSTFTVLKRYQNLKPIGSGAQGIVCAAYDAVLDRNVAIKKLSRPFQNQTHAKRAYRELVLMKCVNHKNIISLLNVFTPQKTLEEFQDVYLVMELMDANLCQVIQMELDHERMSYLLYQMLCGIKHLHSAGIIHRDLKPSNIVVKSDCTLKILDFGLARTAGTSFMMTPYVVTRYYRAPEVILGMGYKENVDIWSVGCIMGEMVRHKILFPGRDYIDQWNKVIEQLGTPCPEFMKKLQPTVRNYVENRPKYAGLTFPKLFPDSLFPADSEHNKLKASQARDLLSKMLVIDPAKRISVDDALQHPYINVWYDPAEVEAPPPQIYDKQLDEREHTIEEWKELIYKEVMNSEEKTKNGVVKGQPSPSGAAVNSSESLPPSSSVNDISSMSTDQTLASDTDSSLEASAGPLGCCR

binding of JNK3 in MBP pull-down [1] | Substance | JNK3 binding element of arrestin-3 [2] | binding of ASK1 (co-immunoprecipitation) [3]
less robust interaction | MGDK-GTRVFKKASPNGKLTVYLGK (MGDKGTRVFKKASPNGKLTVYLGK; N-terminal MGDK; bovine) [B1A, homologous N-terminal peptide from arrestin-2, negative control] |  | 
 | MGEKPGTRVFKKSSPNCKLTVYLGK (bovine) [T1A, first 25 residues of arrestin-3] | key interaction site | binds all upstream kinases of its activation cascade
